# The supplement of paper PMC9112550, “Optimization of the antimicrobial peptide Bac7 by deep mutational scanning” (BMC Biology, 2022)
# System: Escherichia coli TOP10
# Assay: shrunken log2 fold change of peptide-encoding DNA abundance (4.5 h post-induction vs induction); higher = less antimicrobial activity (less host growth inhibition)
# Conditions: time post-induction: 4.5 h; library: site-saturation at positions 5, 18, 19, 20
# 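Further: peptides expressed intracellularly from a pBAD plasmid library in pooled LB shake-flask culture, induced with 0.3% L-arabinose, DNA abundance read by NGS, three biological replicates, DESeq2 with apeglm shrinkage.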
row,Sequence,shrunken log2 fold change
1,RRIRVRPPRLPRPRPRPLAYPRP,0.0656
2,RRIRGRPPRLPRPRPRPVKHPRP,0.168
3,RRIRWRPPRLPRPRPRPPNGPRP,0.034
4,RRIRQRPPRLPRPRPRPHKSPRP,-0.0741
5,RRIRHRPPRLPRPRPRPSVVPRP,0.118
6,RRIRHRPPRLPRPRPRPANTPRP,-0.0313
7,RRIRDRPPRLPRPRPRPGGLPRP,0.501
8,RRIRVRPPRLPRPRPRPEDDPRP,-0.17
9,RRIRPRPPRLPRPRPRPKVDPRP,0.0884
10,RRIRYRPPRLPRPRPRPHQKPRP,-0.248
11,RRIRDRPPRLPRPRPRPQWMPRP,-0.176
12,RRIRRRPPRLPRPRPRPRHKPRP,1.89
13,RRIRVRPPRLPRPRPRPNKYPRP,-0.668
14,RRIRLRPPRLPRPRPRPKARPRP,-0.00543
15,RRIRERPPRLPRPRPRPSNLPRP,-0.302
16,RRIRLRPPRLPRPRPRPTCAPRP,0.314
17,RRIRCRPPRLPRPRPRPSFIPRP,-0.811
18,RRIRMRPPRLPRPRPRPAIVPRP,-0.161
19,RRIRSRPPRLPRPRPRPPQHPRP,0.184
20,RRIRSRPPRLPRPRPRPGKEPRP,-0.0291
21,RRIRLRPPRLPRPRPRPGLIPRP,0.045
22,RRIRQRPPRLPRPRPRPTHQPRP,0.403
23,RRIRMRPPRLPRPRPRPRFNPRP,0.148
24,RRIRPRPPRLPRPRPRPTEPPRP,0.179
25,RRIRDRPPRLPRPRPRPESKPRP,0.0201

row,Sequence,shrunken log2 fold change
1,RRIRWRPPRLPRPRPRPRSDPRP,0.618
2,RRIRLRPPRLPRPRPRPVVCPRP,-0.0501
3,RRIRARPPRLPRPRPRPFKLPRP,-0.39
4,RRIRFRPPRLPRPRPRPCQMPRP,-0.981
5,RRIRARPPRLPRPRPRPYNWPRP,-0.481
6,RRIRVRPPRLPRPRPRPCIDPRP,-0.106
7,RRIRYRPPRLPRPRPRPQWCPRP,-0.219
8,RRIRARPPRLPRPRPRPLGPPRP,0.337
9,RRIRKRPPRLPRPRPRPGECPRP,0.381
10,RRIRGRPPRLPRPRPRPVSQPRP,0.795
11,RRIRFRPPRLPRPRPRPDIQPRP,-0.628
12,RRIRHRPPRLPRPRPRPPELPRP,0.469
13,RRIRTRPPRLPRPRPRPRMPPRP,0.199
14,RRIRMRPPRLPRPRPRPKWNPRP,0.523
15,RRIRHRPPRLPRPRPRPPDLPRP,0.0765
16,RRIRYRPPRLPRPRPRPNPNPRP,-0.735
17,RRIRTRPPRLPRPRPRPDQLPRP,-0.0381
18,RRIRFRPPRLPRPRPRPSWNPRP,-0.575
19,RRIRFRPPRLPRPRPRPKKGPRP,0.106
20,RRIRGRPPRLPRPRPRPQECPRP,0.226
21,RRIRCRPPRLPRPRPRPIRGPRP,0.0532
22,RRIRARPPRLPRPRPRPSCMPRP,0.29
23,RRIRPRPPRLPRPRPRPAQQPRP,0.263
24,RRIRQRPPRLPRPRPRPCSWPRP,0.171
25,RRIRIRPPRLPRPRPRPHMPPRP,-1.11

row,Sequence,shrunken log2 fold change
1,RRIRFRPPRLPRPRPRPGQVPRP,-0.131
2,RRIRLRPPRLPRPRPRPPKSPRP,0.275
3,RRIRCRPPRLPRPRPRPMLYPRP,-0.189
4,RRIRARPPRLPRPRPRPHMHPRP,-0.152
5,RRIRCRPPRLPRPRPRPNNKPRP,-0.71
6,RRIRPRPPRLPRPRPRPMWHPRP,-0.208
7,RRIRHRPPRLPRPRPRPPDMPRP,0.0267
8,RRIRRRPPRLPRPRPRPNHLPRP,-0.394
9,RRIRFRPPRLPRPRPRPFSIPRP,-0.401
10,RRIRCRPPRLPRPRPRPLDSPRP,-0.179
11,RRIRVRPPRLPRPRPRPGRKPRP,-0.0493
12,RRIRWRPPRLPRPRPRPGEAPRP,0.799
13,RRIRGRPPRLPRPRPRPHRDPRP,0.0592
14,RRIRPRPPRLPRPRPRPVRCPRP,0.545
15,RRIRKRPPRLPRPRPRPAQNPRP,0.943
16,RRIRPRPPRLPRPRPRPVLWPRP,0.374
17,RRIRWRPPRLPRPRPRPNSAPRP,0.104
18,RRIRDRPPRLPRPRPRPIPNPRP,0.0139
19,RRIRERPPRLPRPRPRPGPHPRP,0.00422
20,RRIRWRPPRLPRPRPRPWNGPRP,0.0206
21,RRIRARPPRLPRPRPRPNSFPRP,-0.232
22,RRIRPRPPRLPRPRPRPMYPPRP,-0.135
23,RRIRGRPPRLPRPRPRPFHRPRP,-0.118
24,RRIRCRPPRLPRPRPRPNQDPRP,-0.348
25,RRIRKRPPRLPRPRPRPRIHPRP,-0.0869
